Values quoted from earlier work in PMC5519506 (Molecular pharmaceutics, 2016).
Read-outs that look alike come from different tables or passages of the source.

Legend:
EGFR^high tumor = conditions: ref [28], cited from earlier work; for tumor:muscle ratio / tumor:blood ratio: fibronectin
[1] = fibronectin; ref [28]; cited from earlier work

fibronectin
tumor accumulation (EGFR^high tumor; 1 h, second of two values): 2.4 ± 1.0 %ID/g | tumor accumulation (EGFR^high tumor; 1 h): 3.4 ± 1.0 %ID/g | tumor:muscle ratio (EGFR^high tumor; 1 h, PET): 8.6 ± 3.0 | tumor:muscle ratio (EGFR^high tumor; 1 h, excised tissue): 10 ± 4 | tumor:blood ratio (EGFR^high tumor; 1 h): 8.9 ± 4.7 | tumor:muscle ratio (EGFR^high tumor; 4 h, excised tissue): 4.2 ± 1.3 | tumor:blood ratio (EGFR^high tumor; 4 h): 6.4 ± 4.3 | clearance half-time [1]: 2.1 ± 0.3 min
